What was measured:
[1] = tested on: rat monoiodoacetic acid-induced osteoarthritis model; assay: Rat monoiodoacetic acid-induced osteoarthritis model; format: in vivo; settings: 4 mg/mL, 0.5 mL per 100 g intraperitoneally once; 3 days after monoiodoacetic acid
Experimental: The rat monoiodoacetic acid-induced osteoarthritis model was produced in the following manner by the method of Guingamp et al. (Guingamp C. et al., Arthritis Rheum., 40, 1670-1679, 1997) using Sprague-Dawley rats (male, 7 weeks old, Japan Charles River).
Monoiodoacetic acid (manufactured by Sigma-Aldrich) prepared with saline to a final concentration of 10 mg/mL was injected into the right knee joint of the rat in an amount of 25 μL. One group consisted of 10 rats. Anti-FGF-8 neutralizing antibody KM1334 was dissolved in saline (manufactured by Otsuka Seiyaku Kojo) to a final concentration of 4 mg/mL, and the antibody solution at a dose of 0.5 mL per 100 g of the body weight was intraperitoneally administered to a KM1334 administrated group once at the injection of monoiodoacetic acid. To saline group, the saline alone was intraperitoneally administered instead of the antibody solution. Further, a sham operated group was arranged, and the saline was injected in the knee joint thereof without the administration of the agent. After 3 days from the injection of monoiodoacetic acid, the joint washing liquid was recovered by the method described in Example 6. The amount of glycosaminoglycan in the joint lavage fluid was measured by the DMMB method described in Example 1.

FGF-8 [2] = target: T1, FGF-8 (Homo sapiens, UniProt P55075); assay: Inhibition by antibody of FGF-8-promoted production of matrix metalloproteinase-3 from rabbit chondrocytes; format: cell-based; settings: FGF-8 100 ng/mL, 48 hours
T1 construct: purchased R & D
T1 sequence (P55075 23-215 isoform P55075-3 limits assumed): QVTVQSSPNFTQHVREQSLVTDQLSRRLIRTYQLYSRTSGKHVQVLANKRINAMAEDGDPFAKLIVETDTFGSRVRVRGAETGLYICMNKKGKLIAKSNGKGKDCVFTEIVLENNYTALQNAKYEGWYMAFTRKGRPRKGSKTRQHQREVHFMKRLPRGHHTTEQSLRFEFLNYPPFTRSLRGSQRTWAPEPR
Experimental: Rabbit articular chondrocytes were isolated and cultured by the method described in Example 1. After the chondrocytes became confluent, the culture solution was replaced with 0.5 vol % FBS/DMEM, followed by the culturing for 24 hours. The culture solution was removed, and 1 mL of 0.5 vol % FBS/DMEM (non-stimulated group), 0.5 vol % FBS/DMEM comprising FGF-8 (100 ng/mL)(0 group) or 0.5 vol % FBS/DMEM comprising FGF-8 (100 ng/mL) and anti-FGF-8 neutralizing antibody KM1334 (1, 3 or 10 μg/mL) was added, followed by the culturing for 48 hours. After 48 hours, the culture medium was recovered, the matrix metalloproteinase-3 concentration in the culture medium was measured using rabbit matrix metalloproteinase-3 ELISA system (manufactured by Amersham Biosciences). Three experiments were performed for each condition, and the mean values and the standard error were calculated.

FGF-8 [3] = target: T1, FGF-8; assay: Inhibition by antibody of FGF-8-promoted growth of rabbit synovial cells; format: cell-based; settings: FGF-8 100 ng/mL, 0.1, 0.3, 1, 3 or 10 μg/ml tested
Experimental: Rabbit synovial cells were collected by the method of Hamilton et al. (Hamilton J. A. and Slywka J., J. Immunol. 126, 851-855, 1981). The isolated synovial cells were suspended in RPMI 1640 medium comprising 10 vol % FBS (FBS-comprising RPMI 1640 medium is hereinafter referred to as FBS/RPMI 1640), and 10,000 cells was inoculated at each well of a 96-well culture plate. After 24 hours of the culturing, the culture medium of each well was removed, and 200 μL of 0.2 vol % FBS/RPMI 1640 (non-stimulated group) or 0.2 vol % FBS/RPMI 1640 comprising FGF-8 (1, 10 or 100 ng/mL) was added. When the activity of the anti-FGF-8 neutralizing antibody was examined, 200 μL of 0.2 vol % FBS/RPMI 1640 comprising FGF-8 (100 ng/mL) (0 group) or 0.2 vol % FBS/RPMI 1640 comprising FGF-8 (100 ng/mL) and anti-FGF-8 neutralizing antibody KM1334 (0.1, 0.3, 1, 3 or 10 μg/ml) was added to each well. After 48 hours of the culturing, 9.25 kBq per well of [^3H]thymidine was added. The culturing was further performed for 24 hours, and the radioactivity of [^3H]thymidine incorporated in the cells was measured using a liquid scintillation counter (1205 Beta Plate, manufactured by Perkin Elmer Life Science Japan). Six experiments were performed for each condition, and the mean values and the standard error were calculated.

- antibody concentration at which the production of matrix metalloproteinase-3 from the chondrocytes with FGF-8 was significantly inhibited (FGF-8 [2]): ≥ 1 µg/mL
- percent inhibition of matrix metalloproteinase-3 production (FGF-8 [2]; antibody 1 μg/mL): 72%
- percent inhibition of matrix metalloproteinase-3 production (FGF-8 [2]; antibody 3 μg/mL): 74%
- percent inhibition of matrix metalloproteinase-3 production (FGF-8 [2]; antibody 10 μg/mL): 100%
- antibody concentration from which the FGF-8-dependent incorporation of [3H]thymidine was significantly inhibited (FGF-8 [3]): ≥ 0.3 µg/mL
B1: KM1334: anti-FGF-8 neutralizing monoclonal antibody produced by hybridoma KM1334 (FERM BP-5451), mouse IgG1 subclass (antibody, V domains shown)
VH: QVQLQQSGAEVARPGASVKLSCKASGYTFTDYYLNWVKQRSGQGLEWIGEIDPGSDSIYYNENLEGRATLTADKSSSTAYMQLNSLTSEDSAVYFCARYGYSRYDVRFVYWGQGTLVTVST
VL: DVLMTQTPLSLPVSLGDQASISCRSSQSLVHSNGRTYLEWYLQKPGQSPKVLIYKVSNRISGVPDRFSGSGSGTDFTLKISRVEAEDLGVYFCFQGSHVPYTFGGGTKLEIK
- inhibition of the increase in concentration of glycosaminoglycan in the joint lavage fluid [1]: 42%
